# Measured values from article PMC11215335.
# Target: single-chain Fv antibody fragment 18B7
# Assay: not stated; soluble scFv produced in the periplasm of E. coli (Fig. S2A)
# Chain of single-chain Fv antibody fragment 18B7 (scFv) (VH): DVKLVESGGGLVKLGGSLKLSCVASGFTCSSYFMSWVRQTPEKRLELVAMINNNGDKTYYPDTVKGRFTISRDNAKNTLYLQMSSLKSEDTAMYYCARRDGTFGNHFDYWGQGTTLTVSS
# Chain of single-chain Fv antibody fragment 18B7 (scFv) (VL): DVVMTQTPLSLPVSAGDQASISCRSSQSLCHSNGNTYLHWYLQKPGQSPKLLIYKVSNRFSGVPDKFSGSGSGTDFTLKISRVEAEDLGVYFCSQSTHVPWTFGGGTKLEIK
substance,measurement,value
single-chain Fv antibody fragment 18B7 (scFv),stoichiometry N,2
